# B1: U4/U6 small nuclear ribonucleoprotein Prp3 (Homo sapiens), O43395 (parent)
# chain: MALSKRELDELKPWIEKTVKRVLGFSEPTVVTAALNCVGKGMDKKKAADHLKPFLDDSTLRFVDKLFEAVEEGRSSRHSKSSSDRSRKRELKEVFGDDSEISKESSGVKKRRIPRFEEVEEEPEVIPGPPSESPGMLTKLQIKQMMEAATRQIEERKKQLSFISPPTPQPKTPSSSQPERLPIGNTIQPSQAATFMNDAIEKARKAAELQARIQAQLALKPGLIGNANMVGLANLHAMGIAPPKVELKDQTKPTPLILDEQGRTVDATGKEIELTHRMPTLKANIRAVKREQFKQQLKEKPSEDMESNTFFDPRVSIAPSQRQRRTFKFHDKGKFEKIAQRLRTKAQLEKLQAEISQAARKTGIHTSTRLALIAPKKELKEGDIPEIEWWDSYIIPNGFDLTEENPKREDYFGITNLVEHPAQLNPPVDNDTPVTLGVYLTKKEQKKLRRQTRREAQKELQEKVRLGLMPPPEPKVRISNLMRVLGTEAVQDPTKVEAHVRAQMAKRQKAHEEANAARKLTAEQRKVKKIKKLKEDISQGVHISVYRVRNLSNPAKKFKIEANAGQLYLTGVVVLHKDVNVVVVEGGPKAQKKFKRLMLHRIKWDEQTSNTKGDDDEESDEEAVKKTNKCVLVWEGTAKDRSFGEMKFKQCPTENMAREHFKKHGAEHYWDLALSESVLESTD
# partner: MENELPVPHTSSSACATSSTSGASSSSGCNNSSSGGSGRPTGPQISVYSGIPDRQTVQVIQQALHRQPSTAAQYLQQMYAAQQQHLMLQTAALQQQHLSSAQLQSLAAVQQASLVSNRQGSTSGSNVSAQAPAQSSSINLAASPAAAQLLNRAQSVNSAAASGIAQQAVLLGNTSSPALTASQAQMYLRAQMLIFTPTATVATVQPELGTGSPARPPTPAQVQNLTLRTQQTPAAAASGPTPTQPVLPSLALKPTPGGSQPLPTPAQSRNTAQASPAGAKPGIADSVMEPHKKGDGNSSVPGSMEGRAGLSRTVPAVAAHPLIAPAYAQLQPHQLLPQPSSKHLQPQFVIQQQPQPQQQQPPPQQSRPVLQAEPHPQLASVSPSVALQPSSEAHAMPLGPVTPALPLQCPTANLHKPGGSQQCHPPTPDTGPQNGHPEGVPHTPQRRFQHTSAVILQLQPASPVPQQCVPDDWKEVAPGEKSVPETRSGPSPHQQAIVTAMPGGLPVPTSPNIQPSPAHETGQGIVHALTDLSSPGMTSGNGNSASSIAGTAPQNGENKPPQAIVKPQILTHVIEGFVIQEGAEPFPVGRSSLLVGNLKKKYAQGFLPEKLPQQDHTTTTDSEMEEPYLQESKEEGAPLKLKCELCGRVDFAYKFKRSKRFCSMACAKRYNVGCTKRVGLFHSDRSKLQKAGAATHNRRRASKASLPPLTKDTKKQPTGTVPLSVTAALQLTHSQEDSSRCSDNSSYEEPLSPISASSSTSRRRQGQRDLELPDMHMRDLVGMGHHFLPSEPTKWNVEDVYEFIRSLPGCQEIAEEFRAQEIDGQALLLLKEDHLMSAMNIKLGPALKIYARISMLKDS
# B2: Cytochrome P450 1A1 (Homo sapiens), P04798 (parent)
# chain: MLFPISMSATEFLLASVIFCLVFWVIRASRPQVPKGLKNPPGPWGWPLIGHMLTLGKNPHLALSRMSQQYGDVLQIRIGSTPVVVLSGLDTIRQALVRQGDDFKGRPDLYTFTLISNGQSMSFSPDSGPVWAARRRLAQNGLKSFSIASDPASSTSCYLEEHVSKEAEVLISTLQELMAGPGHFNPYRYVVVSVTNVICAICFGRRYDHNHQELLSLVNLNNNFGEVVGSGNPADFIPILRYLPNPSLNAFKDLNEKFYSFMQKMVKEHYKTFEKGHIRDITDSLIEHCQEKQLDENANVQLSDEKIINIVLDLFGAGFDTVTTAISWSLMYLVMNPRVQRKIQEELDTVIGRSRRPRLSDRSHLPYMEAFILETFRHSSFVPFTIPHSTTRDTSLKGFYIPKGRCVFVNQWQINHDQKLWVNPSEFLPERFLTPDGAIDKVLSEKVIIFGMGKRKCIGETIARWEVFLFLAILLQRVEFSVPLGVKVDMTPIYGLTMKHACCEHFQMQLRS
# B3: Sulfotransferase 2B1 (Homo sapiens), O00204 (parent)
# chain: MDGPAEPQIPGLWDTYEDDISEISQKLPGEYFRYKGVPFPVGLYSLESISLAENTQDVRDDDIFIITYPKSGTTWMIEIICLILKEGDPSWIRSVPIWERAPWCETIVGAFSLPDQYSPRLMSSHLPIQIFTKAFFSSKAKVIYMGRNPRDVVVSLYHYSKIAGQLKDPGTPDQFLRDFLKGEVQFGSWFDHIKGWLRMKGKDNFLFITYEELQQDLQGSVERICGFLGRPLGKEALGSVVAHSTFSAMKANTMSNYTLLPPSLLDHRRGAFLRKGVCGDWKNHFTVAQSEAFDRAYRKQMRGMPTFPWDEDPEEDGSPDPEPSPEPEPKPSLEPNTSLEREPRPNSSPSPSPGQASETPHPRPS
# partner: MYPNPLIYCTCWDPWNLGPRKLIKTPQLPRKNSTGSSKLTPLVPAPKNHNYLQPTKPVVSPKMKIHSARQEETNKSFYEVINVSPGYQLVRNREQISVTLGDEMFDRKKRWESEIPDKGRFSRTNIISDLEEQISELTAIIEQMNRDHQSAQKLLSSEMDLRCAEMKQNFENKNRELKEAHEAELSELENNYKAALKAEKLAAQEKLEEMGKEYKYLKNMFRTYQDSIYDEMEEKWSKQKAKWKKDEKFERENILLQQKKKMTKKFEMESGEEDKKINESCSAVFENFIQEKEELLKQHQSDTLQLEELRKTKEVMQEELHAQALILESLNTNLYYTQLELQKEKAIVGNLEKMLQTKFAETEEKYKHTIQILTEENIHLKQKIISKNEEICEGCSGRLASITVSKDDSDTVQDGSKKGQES
# B4: Adiponectin (Homo sapiens), Q15848 (parent)
# chain: MLLLGAVLLLLALPGHDQETTTQGPGVLLPLPKGACTGWMAGIPGHPGHNGAPGRDGRDGTPGEKGEKGDPGLIGPKGDIGETGVPGAEGPRGFPGIQGRKGEPGEGAYVYRSAFSVGLETYVTIPNMPIRFTKIFYNQQNHYDGSTGKFHCNIPGLYYFAYHITVYMKDVKVSLFKKDKAMLFTYDQYQENNVDQASGSVLLHLEVGDQVWLQVYGEGERNGLYADNDNDSTFTGFLLYHDTN
# partner: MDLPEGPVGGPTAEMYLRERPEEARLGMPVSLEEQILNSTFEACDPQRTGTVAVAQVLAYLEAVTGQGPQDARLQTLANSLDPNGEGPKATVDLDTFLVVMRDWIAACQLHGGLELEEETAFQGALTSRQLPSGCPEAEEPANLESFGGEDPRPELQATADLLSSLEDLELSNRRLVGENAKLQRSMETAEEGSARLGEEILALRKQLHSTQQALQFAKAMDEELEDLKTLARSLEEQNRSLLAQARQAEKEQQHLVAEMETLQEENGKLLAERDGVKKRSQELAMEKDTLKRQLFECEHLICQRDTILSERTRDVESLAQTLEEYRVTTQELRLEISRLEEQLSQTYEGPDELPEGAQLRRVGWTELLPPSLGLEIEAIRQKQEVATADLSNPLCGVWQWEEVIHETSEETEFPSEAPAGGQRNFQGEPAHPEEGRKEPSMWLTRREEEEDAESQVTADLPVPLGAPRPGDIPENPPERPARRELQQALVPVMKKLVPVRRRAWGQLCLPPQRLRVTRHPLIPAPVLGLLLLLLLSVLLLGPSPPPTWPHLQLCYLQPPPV
# B5: Emerin (Homo sapiens), P50402 (parent)
# chain: MDNYADLSDTELTTLLRRYNIPHGPVVGSTRRLYEKKIFEYETQRRRLSPPSSSAASSYSFSDLNSTRGDADMYDLPKKEDALLYQSKGYNDDYYEESYFTTRTYGEPESAGPSRAVRQSVTSFPDADAFHHQVHDDDLLSSSEEECKDRERPMYGRDSAYQSITHYRPVSASRSSLDLSYYPTSSSTSFMSSSSSSSSWLTRRAIRPENRAPGAGLGQDRQVPLWGQLLLFLVFVIVLFFIYHFMQAEEGNPF
# partner: B4 partner
# B6: LHFPL tetraspan subfamily member 5 protein (Homo sapiens), Q8TAF8 (parent)
# chain: MVKLLPAQEAAKIYHTNYVRNSRAVGVMWGTLTICFSVLVMALFIQPYWIGDSVNTPQAGYFGLFSYCVGNVLSSELICKGGPLDFSSIPSRAFKTAMFFVALGMFLIIGSIICFSLFFICNTATVYKICAWMQLAAATGLMIGCLVYPDGWDSSEVRRMCGEQTGKYTLGHCTIRWAFMLAILSIGDALILSFLAFVLGYRQDKLLPDDYKADGTEEV
# partner: B4 partner
# B7: Proton-coupled zinc antiporter SLC30A2 (Homo sapiens), Q9BRI3 (parent)
# chain: MEAKEKQHLLDARPAIRSYTGSLWQEGAGWIPLPRPGLDLQAIELAAQSNHHCHAQKGPDSHCDPKKGKAQRQLYVASAICLLFMIGEVVGGYLAHSLAVMTDAAHLLTDFASMLISLFSLWMSSRPATKTMNFGWQRAEILGALVSVLSIWVVTGVLVYLAVERLISGDYEIDGGTMLITSGCAVAVNIIMGLTLHQSGHGHSHGTTNQQEENPSVRAAFIHVIGDFMQSMGVLVAAYILYFKPEYKYVDPICTFVFSILVLGTTLTILRDVILVLMEGTPKGVDFTAVRDLLLSVEGVEALHSLHIWALTVAQPVLSVHIAIAQNTDAQAVLKTASSRLQGKFHFHTVTIQIEDYSEDMKDCQACQGPSD
# partner: B4 partner
# B8: Beta-crystallin A4 (Homo sapiens), P53673 (parent)
# chain: MTLQCTKSAGPWKMVVWDEDGFQGRRHEFTAECPSVLELGFETVRSLKVLSGAWVGFEHAGFQGQQYILERGEYPSWDAWGGNTAYPAERLTSFRPAACANHRDSRLTIFEQENFLGKKGELSDDYPSLQAMGWEGNEVGSFHVHSGAWVCSQFPGYRGFQYVLECDHHSGDYKHFREWGSHAPTFQVQSIRRIQQ
# partner: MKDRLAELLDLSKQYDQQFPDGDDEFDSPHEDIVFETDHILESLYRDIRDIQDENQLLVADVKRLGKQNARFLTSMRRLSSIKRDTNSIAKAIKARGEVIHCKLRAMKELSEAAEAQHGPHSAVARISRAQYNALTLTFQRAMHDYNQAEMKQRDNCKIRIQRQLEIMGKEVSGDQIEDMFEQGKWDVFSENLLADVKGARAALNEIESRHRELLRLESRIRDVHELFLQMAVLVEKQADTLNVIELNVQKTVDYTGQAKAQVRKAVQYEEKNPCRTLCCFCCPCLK
# B9: U4/U6 small nuclear ribonucleoprotein Prp31 (Homo sapiens), Q8WWY3 (parent)
# chain: MSLADELLADLEEAAEEEEGGSYGEEEEEPAIEDVQEETQLDLSGDSVKTIAKLWDSKMFAEIMMKIEEYISKQAKASEVMGPVEAAPEYRVIVDANNLTVEIENELNIIHKFIRDKYSKRFPELESLVPNALDYIRTVKELGNSLDKCKNNENLQQILTNATIMVVSVTASTTQGQQLSEEELERLEEACDMALELNASKHRIYEYVESRMSFIAPNLSIIIGASTAAKIMGVAGGLTNLSKMPACNIMLLGAQRKTLSGFSSTSVLPHTGYIYHSDIVQSLPPDLRRKAARLVAAKCTLAARVDSFHESTEGKVGYELKDEIERKFDKWQEPPPVKQVKPLPAPLDGQRKKRGGRRYRKMKERLGLTEIRKQANRMSFGEIEEDAYQEDLGFSLGHLGKSGSGRVRQTQVNEATKARISKTLQRTLQKQSVVYGGKSTIRDRSSGTASSVAFTPLQGLEIVNPQAAEKKVAEANQKYFSSMAEFLKVKGEKSGLMST
# partner: B8 partner
# B10: Peripheral myelin protein 22 (Homo sapiens), Q01453 (parent)
# chain: MLLLLLSIIVLHVAVLVLLFVSTIVSQWIVGNGHATDLWQNCSTSSSGNVHHCFSSSPNEWLQSVQATMILSIIFSILSLFLFFCQLFTLTKGGRFYITGIFQILAGLCVMSAAAIYTVRHPEWHLNSDYSYGFAYILAWVAFPLALLSGVIYVILRKRE
# partner: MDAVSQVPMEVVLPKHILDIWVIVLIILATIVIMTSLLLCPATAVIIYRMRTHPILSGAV
# B11: Emerin (Homo sapiens), P50402 (parent)
# chain: B5 chain
# partner: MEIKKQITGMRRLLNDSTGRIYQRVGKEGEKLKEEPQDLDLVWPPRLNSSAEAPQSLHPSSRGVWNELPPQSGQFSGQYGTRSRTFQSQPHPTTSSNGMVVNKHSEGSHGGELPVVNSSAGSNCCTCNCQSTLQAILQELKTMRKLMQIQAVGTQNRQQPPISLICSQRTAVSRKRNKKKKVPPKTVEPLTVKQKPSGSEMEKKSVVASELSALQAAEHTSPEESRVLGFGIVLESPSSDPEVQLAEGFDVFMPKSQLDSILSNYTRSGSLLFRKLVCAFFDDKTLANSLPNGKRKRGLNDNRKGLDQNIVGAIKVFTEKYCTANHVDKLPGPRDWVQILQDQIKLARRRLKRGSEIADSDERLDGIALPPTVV
# Variants of: B1
# Details: with PHC2, Q8IXK0-5
row,Variant,effect of a mutation on the interaction
1,T494M,disrupting interaction strength

# Variants of: B2
# Details: with CMTM5, Q96DZ9-2
# Sequence of CMTM5, Q96DZ9-2 (Q96DZ9 other isoform, or with tags, fused parts or gaps): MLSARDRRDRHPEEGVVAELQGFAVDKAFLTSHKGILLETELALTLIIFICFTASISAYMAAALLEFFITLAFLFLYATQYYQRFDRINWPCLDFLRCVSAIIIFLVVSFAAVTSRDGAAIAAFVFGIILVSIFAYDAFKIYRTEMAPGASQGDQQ
row,Variant,effect of a mutation on the interaction
1,I462V,with no effect
2,T461N,with no effect

# Variants of: B3
# Details: with FLACC1, Q96Q35-2
row,Variant,effect of a mutation on the interaction
1,D191N,with no effect
2,R230H,with no effect

# Variants of: B4
# Details: with kash5_human KASH5, Q8N6L0
row,Variant,effect of a mutation on the interaction
1,Y111H,with no effect
2,I164T,with no effect

# Variants of: B5
# Details: with kash5_human KASH5, Q8N6L0
row,Variant,effect of a mutation on the interaction
1,S54F,with no effect
2,D72V,with no effect
3,P183H,with no effect
4,P183T,with no effect

# Variants of: B6
# Details: with kash5_human KASH5, Q8N6L0
row,Variant,effect of a mutation on the interaction
1,Y127C,with no effect
2,T165M,with no effect

# Variants of: B7
# Details: with kash5_human KASH5, Q8N6L0
row,Variant,effect of a mutation on the interaction
1,H54R,with no effect

# Variants of: B8
# Details: with stx11_human STX11, O75558
row,Variant,effect of a mutation on the interaction
1,V36M,disrupting interaction strength
2,L69P,disrupting interaction strength
3,F94S,disrupting interaction strength

# Variants of: B9
# Details: with stx11_human STX11, O75558
row,Variant,effect of a mutation on the interaction
1,L107V,with no effect

# Variants of: B10
# Details: with smim3_human SMIM3, Q9BZL3
row,Variant,effect of a mutation on the interaction
1,R157G,disrupting interaction strength

# Variants of: B11
# Details: with BEND7, Q8N7W2-2
row,Variant,effect of a mutation on the interaction
1,P183H,with no effect

# From IntAct's records for PubMed 25910212
